One assay addresses FIP200-GFP. The assay is described as follows: bead recruitment assay (confocal imaging of FIP200-GFP on beads). The following applies: glutathione Sepharose beads coated with GST-4xUb, incubated with untagged NDP52 and FIP200-GFP; read off a plot.
The target in assay [1] is His-Flag-NDP52 C18, 153, 163, 321S (human) (UniProt Q13137). The assay is described as follows: native gel or EMSA; blue native PAGE of lysates (30 μg; 20 mM Bis-Tris pH 7.2, 40 mM NaCl, 10% glycerol, 0.5% NP-40) of HeLa PentaKO cells stably expressing NDP52 WT or Mut, immunoblot.
The target of assay [2] is untagged NDP52 C18, 153, 163, 321S mutant (human) (UniProt Q13137). The assay is described as follows: native gel or EMSA; blue native PAGE (4–16% NativePAGE gel, Coomassie G-250) of recombinant NDP52 WT and Mut, immunoblot.

Take “untagged NDP52 wild type mutant C18S; C153S; C163S; C321S [human] / FIP200-GFP [not stated] chain 1 C18S, chain 1 C153S, chain 1 C163S, chain 1 C321S”: the percent of parent with FIP200-GFP stood at 93%.

In turn, “His-Flag-NDP52 C18, 153, 163, 321S (from UniProt Q13137 1-446) (natural protein)” returned a stoichiometry N in assay [1] of 2. “untagged NDP52 C18, 153, 163, 321S mutant (from UniProt Q13137 1-446) (natural protein)”: the stoichiometry N in assay [2] stood at 2.

As a reminder, the stoichiometry N is the number of molecules, sites or subunits per partner or assembly.

The values above are taken from PMC9975939.
